Experimental data taken from patent publication US20230406885A1, “CYCLIC PEPTIDES FOR TRAPPING INTERLEUKIN-1 BETA” (MERCK SHARP & DOHME LLC, priority 2022, published 2023).
*1 amine or outer side, *2 acyl side, *3 side chain or, on linkers, in order; H or OH if unused. [ ]: non-standard residue; d: D form. TyrEtNAc = L-tyrosine O-ethyl acetamide, (S)-3-(4-(2-acetamidoethoxy)phenyl)-2-aminopropanoic acid, CC(=O)NCCOc1ccc(C[C@H](N[*:1])C(=O)[*:2])cc1; dDabMe3 = [(R)-3-amino-3-carboxypropyl]-trimethylazanium, C[N+](C)(C)CC[C@@H](N[*:1])C(=O)[*:2]; Pro(trans-4-NH2) = O=C([C@@H]1C[C@@H](N[*:3])CN1[*:1])[*:2]; Bip(4'-COOH) = N[C@@H](Cc1ccc(-c2ccc(C(=O)O)cc2)cc1)C(=O)O; 1Nal(3S-Me) = C[C@@H](c1cccc2ccccc12)[C@H](N)C(=O)O; Ala(indolin-1-yl) = N[C@@H](CN1CCc2ccccc21)C(=O)O; Phe(4-COOH) = N[C@@H](Cc1ccc(C(=O)O)cc1)C(=O)O; Trp(6-F) = N[C@@H](Cc1c[nH]c2cc(F)ccc12)C(=O)O; Trp(7-aza) = N[C@@H](Cc1c[nH]c2ncccc12)C(=O)O; hTyr = N[C@@H](CCc1ccc(O)cc1)C(=O)O; hCha = N[C@@H](CCC1CCCCC1)C(=O)O; dDab = NCC[C@@H](N)C(=O)O; dNMeA = CN[C@H](C)C(=O)O

B1: SEQ ID NO: 214 (Example No. 214) (peptide)
peptide: cyclo([TyrEtNAc]W[Phe(4-COOH)]G[Pro(trans-4-NH2)][1Nal(3S-Me)]D[dNMeA]G[Bip(4'-COOH)][Trp(7-aza)]G[dDab][hCha])
SMILES: CC(=O)NCCOc1ccc(C[C@@H]2NC(=O)[C@H](CCC3CCCCC3)NC(=O)[C@@H](CCN)NC(=O)CNC(=O)[C@H](Cc3c[nH]c4ncccc34)NC(=O)[C@H](Cc3ccc(-c4ccc(C(=O)O)cc4)cc3)NC(=O)CNC(=O)[C@@H](C)N(C)C(=O)[C@H](CC(=O)O)NC(=O)[C@H]([C@@H](C)c3cccc4ccccc34)NC(=O)[C@@H]3C[C@@H](N)CN3C(=O)CNC(=O)[C@H](Cc3ccc(C(=O)O)cc3)NC(=O)[C@H](Cc3c[nH]c4ccccc34)NC2=O)cc1
B2: SEQ ID NO: 213 (Example No. 213) (peptide)
peptide: cyclo([TyrEtNAc][Trp(6-F)][Phe(4-COOH)]G[Pro(trans-4-NH2)][1Nal(3S-Me)]D[dNMeA]G[Bip(4'-COOH)][Trp(7-aza)]S[dDabMe3][hCha])
SMILES: CC(=O)NCCOc1ccc(C[C@@H]2NC(=O)[C@H](CCC3CCCCC3)NC(=O)[C@@H](CC[N+](C)(C)C)NC(=O)[C@H](CO)NC(=O)[C@H](Cc3c[nH]c4ncccc34)NC(=O)[C@H](Cc3ccc(-c4ccc(C(=O)O)cc4)cc3)NC(=O)CNC(=O)[C@@H](C)N(C)C(=O)[C@H](CC(=O)O)NC(=O)[C@H]([C@@H](C)c3cccc4ccccc34)NC(=O)[C@@H]3C[C@@H](N)CN3C(=O)CNC(=O)[C@H](Cc3ccc(C(=O)O)cc3)NC(=O)[C@H](Cc3c[nH]c4cc(F)ccc34)NC2=O)cc1
B3: SEQ ID NO: 212 (Example No. 212) (peptide)
peptide: cyclo([TyrEtNAc][Trp(6-F)][Phe(4-COOH)]G[Pro(trans-4-NH2)][1Nal(3S-Me)]D[dNMeA]G[Bip(4'-COOH)][Trp(7-aza)]S[dDab][hCha])
SMILES: CC(=O)NCCOc1ccc(C[C@@H]2NC(=O)[C@H](CCC3CCCCC3)NC(=O)[C@@H](CCN)NC(=O)[C@H](CO)NC(=O)[C@H](Cc3c[nH]c4ncccc34)NC(=O)[C@H](Cc3ccc(-c4ccc(C(=O)O)cc4)cc3)NC(=O)CNC(=O)[C@@H](C)N(C)C(=O)[C@H](CC(=O)O)NC(=O)[C@H]([C@@H](C)c3cccc4ccccc34)NC(=O)[C@@H]3C[C@@H](N)CN3C(=O)CNC(=O)[C@H](Cc3ccc(C(=O)O)cc3)NC(=O)[C@H](Cc3c[nH]c4cc(F)ccc34)NC2=O)cc1
B4: SEQ ID NO: 211 (Example No. 211) (peptide)
peptide: cyclo([TyrEtNAc][Trp(6-F)][Phe(4-COOH)]G[Pro(trans-4-NH2)][1Nal(3S-Me)]D[dNMeA]G[Bip(4'-COOH)][Ala(indolin-1-yl)]G[dDab][hTyr])
SMILES: CC(=O)NCCOc1ccc(C[C@@H]2NC(=O)[C@H](CCc3ccc(O)cc3)NC(=O)[C@@H](CCN)NC(=O)CNC(=O)[C@H](CN3CCc4ccccc43)NC(=O)[C@H](Cc3ccc(-c4ccc(C(=O)O)cc4)cc3)NC(=O)CNC(=O)[C@@H](C)N(C)C(=O)[C@H](CC(=O)O)NC(=O)[C@H]([C@@H](C)c3cccc4ccccc34)NC(=O)[C@@H]3C[C@@H](N)CN3C(=O)CNC(=O)[C@H](Cc3ccc(C(=O)O)cc3)NC(=O)[C@H](Cc3c[nH]c4cc(F)ccc34)NC2=O)cc1
B5: SEQ ID NO: 215 (Example No. 215) (peptide)
peptide: cyclo([TyrEtNAc]W[Phe(4-COOH)]G[Pro(trans-4-NH2)][1Nal(3S-Me)]D[dNMeA]G[Bip(4'-COOH)][Trp(7-aza)]G[dDab][hTyr])
SMILES: CC(=O)NCCOc1ccc(C[C@@H]2NC(=O)[C@H](CCc3ccc(O)cc3)NC(=O)[C@@H](CCN)NC(=O)CNC(=O)[C@H](Cc3c[nH]c4ncccc34)NC(=O)[C@H](Cc3ccc(-c4ccc(C(=O)O)cc4)cc3)NC(=O)CNC(=O)[C@@H](C)N(C)C(=O)[C@H](CC(=O)O)NC(=O)[C@H]([C@@H](C)c3cccc4ccccc34)NC(=O)[C@@H]3C[C@@H](N)CN3C(=O)CNC(=O)[C@H](Cc3ccc(C(=O)O)cc3)NC(=O)[C@H](Cc3c[nH]c4ccccc34)NC2=O)cc1

biological target: Recombinant human IL-1β (BioLegend 579404) (human, UniProt P01584 117-269); assay: cell-based or functional assay

In order of falling “MRC5 IC50” value:
1. B4  0.027 nM
2. B3  0.025 nM
3. B5  0.024 nM
4. B1  0.02 nM
5. B2  0.018 nM
